The nanobody polyreactivity screen of Harvey et al. (2022)

Test: yeast display, Sf9 membrane polyspecificity reagent, FACS + sequencing; frameworks hold sequencing errors
Outline: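 After 36–48 hours of galactose induction, yeast (Saccharomyces cerevisiae BJ5465) displaying a synthetic nanobody library were stained at 4 °C for 1 hour with 10% biotinylated, detergent-solubilized Sf9 membrane reagent. Streptavidin microbeads enriched the stained cells before FACS sorting into low and high (top ~1%) gates on anti-HA and streptavidin fluorescence. Each clone's polyreactivity label reflects its gate of origin.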

QVQLVESGGGIVQAGGSLRLSCAASGLIFYTYAMGWYRQAPGKERELVATISWDVDSTNYADSVKGRFTISRDNAKNTVYLQMNSLKPEDTAGYYCAVDSTFDSYWYWVDYYEYGYWGQGTQVTVSS
polyreactivity (PSR sort gate): high polyreactivity

QVQLVESGGGLVQAGGSLRLSCAASGSTFGVNAMGWYRQAPGKERELVAAITRRGSSTYYADSVKGRFTNSRDNAKNTVYLQMNSLKPEDTAVYFCAADLHYRPGFRYGYWGQGTQVTVSS
polyreactivity (PSR sort gate): high polyreactivity

QVQLVESGGGLVQAGGSLRLSCAASGFIFAYYAMGWYRQAPGKERELVAAISSRAGRTYYADSVKGRFTISRDNAKNTVYLQMNSLKPEYTAVYYWAAPTSSSGRYHRYYYWGQGTQVTVSS
polyreactivity (PSR sort gate): high polyreactivity

QVQHVESGGGLVQAGVSLRLSCAASGFTFGSNAMGRYRPAPGKERELVAAINYSGVRTYYADSVKGRFTISRDNAKNTVYLQMNSLKPEDTAVYYCAKQRSKPNSFDYWGQGTQVTVSS
polyreactivity (PSR sort gate): high polyreactivity

QDQLVESGGCLVQAGGSLRLSCAASGRIIIGYVMGWYRQAPVKERELVATISYSGGSTYADSVKGRFTISRDNAKNTVYLLMNSLKPEDTAVYYCNALFAGHKYYTVTSKYDYWGQGTQVTLSS
polyreactivity (PSR sort gate): high polyreactivity

QVQLVESGGGLVQAGGSLRLSCAASGMGWYRQAPGKERELVAAITSGDSTNYADSVKGRFTISRDNAKNTVYLQMNSLKPEDTAVYYCAADPDYLYAYYYWGQGTQVTVSS
polyreactivity (PSR sort gate): low polyreactivity

QVQLVESGGGLVQAGGSLRLSCAASGFIFRGNAMGWYRQATGKERELVAGIRSLGGTTSYADSVKVRFTISRDNAKNTVYLQMNSLKPDDSGVYYCAAGYGADFDYWGQGTQVTVSS
polyreactivity (PSR sort gate): low polyreactivity

QVQHVESGGALVQAGGSLRLSCADSGRTFIFYAMGWYRQAPGKETELVASTSSGGSTNYADSVKGRFTISRDNAKNTVYLQMNILKPEDTAVYYCATRQYLYYSRGYGYWGQGTKVTVSS
polyreactivity (PSR sort gate): low polyreactivity

QVQLVESGVVLVQAGGSLRLSCAASGYTFRVYTMGWYRQAPGKERELVAAISRRGSRTYYADSVKGRFTISRDYAKNTVYLQKNSLKPEDTAVYYCAAGIPYPDDYWGLGTQVTVSS
polyreactivity (PSR sort gate): high polyreactivity

QVQLVESGGGLVQAGGRLRLSCAASGTTFVYYAMGWYRQAPGKERELVAAITASGGRTYYADSVKGRFTISRDNSKNTVYLEMNSLKPDDTAVYYCNARARKSIRVGGYNYWGQGSQVTVSS
polyreactivity (PSR sort gate): high polyreactivity

QVQLVESGAGLVQAGGSLRLSCAASGFIFVKYVMGWYRQAPGKERELDATITNGVSTNYADSVKGRFTISRDNAKNTVYLQMNSLKPEDTAVYYCNTGSTAWYFSGDYWGQGTQVTVSS
polyreactivity (PSR sort gate): low polyreactivity

QVQLVESGGGLVQAGGSLRLSCAASGFIFGVYAMGWYRQAPGKERELVAAISGSGGTTYYADSVKGRFTISRDNAKNTVYLQMISLKPEDTAVYYCNAAYRVRYIVNYDYWGQGTQVTVSS
polyreactivity (PSR sort gate): low polyreactivity

QVQLEESGGGLVQAGGSLRLSCAASGRIFVFYDMGWYRQAPGKERELVATITRSGGRTYYADSVKGRFTISRDNAKNTVYLQMNSLKPEDTAVYYCAARRYGKYDYWGQGTQVTVSS
polyreactivity (PSR sort gate): low polyreactivity

QVQLVESGGGLVQAGGSLRLSCAASGRTFWANAMGWYRQAPGKERELVAAITIGGRTYYADSVKGRFTISRDNAKNTVYIQMNSLKPEDTAVYYCNAGSRRPFPAESGYWGQGTQVTVSS
polyreactivity (PSR sort gate): low polyreactivity

QVQLVESGGGLVQAGGSLRLSCAASGSTFALYAMGWYRQAPGKERELVAAITRGDRTYYADSVKGRFTISRDNAKNTVYLQMNSLKAEDSAVYYCAAGYFGLWVRYDYWGQGSQVTVSS
polyreactivity (PSR sort gate): low polyreactivity

QVQLVESGGGLVQSGGSLRLSCAASGSTFVSNAMGWYRQAPGKERELFAAINGSGGITYYADSVKGRFTISRDNAKNTVYLQMNSLKPEDTAVYYCAAEYDGPYTWVDYYYHYGYWGQGTEVTVSS
polyreactivity (PSR sort gate): low polyreactivity

QVQLVESGGGLVQAGGSLRLSCAASGIIFWDYAMGWSRQAPGKEREIVAAINTSGGTTTYADSVKGRFTISRDNAKNTVYLKMNSLKPEDTAVYYCAADTWGYYSYAYYYWGQGTQVTVSS
polyreactivity (PSR sort gate): low polyreactivity

QVQLVESGGGLVQAGGSLRLSSAASGRTFYWYAMGWYRQAPGKQRELVASISIDGRTYYADSVKGRFTISRDNAKNNVYLQMNSLKPEDTAVYYCNVVRYYPYRPTTKRGGGYWGQGTQVSVSS
polyreactivity (PSR sort gate): high polyreactivity

QVQLVESGGGLVQAGGSLRLSCAASGFIFGGYAMGWYRQAPGKERELVAAISSGGGTTYADSVKGRFTISRDNAKYTVYLQMNSLKPEDTAVYYGAAVTRDYRNDRRRQRYYYWGQGTQVTVSS
polyreactivity (PSR sort gate): high polyreactivity

QVQLVESGGGLVQAGGSLRLSCAASGRTFGLNAMGWYRQAPGKERELVAAISSSGGSTYYADSVKGRFTISRDNAKNTVYLQMNSLKPEDTAVYYCAKVLYRYGTAYYYWGQGTQVTVSS
polyreactivity (PSR sort gate): high polyreactivity

QVQLVESGGGLVQAGGSLRLSCAPSGRNFWYYGMVWYRPAPGRERELVAAISRSGGRTSYADSVKGRFTISRDNAKNTVYLQMNSLKPEDTAVYYCATDGYYRYGYWGQGTQVTVSS
polyreactivity (PSR sort gate): high polyreactivity

QVQLVESGGGLVQAGGSLRLSCAASGSTFKVYAMGWYRQAPGKERELVAAISRSGGRTYYADSVKGRFTISRDNEKNTVYLQMNSLKPEDTAVYYCNSDYTYSQGHYSGSYDYWGQGSQVTVSS
polyreactivity (PSR sort gate): high polyreactivity

QVQLVESGGGLVQAGGSLRLSCAASGSTFGANPMGWYRQAPGKEREFVAAISGSGTTTYYADSVKGRFTISRDNAKNTVYLQMNSLKTEDTAVYYCAKTRKAHWLEYWGQGTQVTVSS
polyreactivity (PSR sort gate): low polyreactivity

QVQLGESGGGLVQAGGSLRLSCAASGSTFAKYVMGWYRQAPGKERELVAAISRRGSSTYYADSVKGRFTISRDNAKNTVYLQMNSLKPEDTAVYYCNAGSFSRKARRYDYWGQGTQVTVSS
polyreactivity (PSR sort gate): high polyreactivity

QVQLVESGGGLVQAGGSLRLSCAASGSIFNANAMGWYRQAPGKERELVAGIRSGSSTNYADSVKGRFTISRDNAKNTVYFQMNSLKPEDTAVYYCATEGYWVYGFDDEDWGQGTQVTVSS
polyreactivity (PSR sort gate): low polyreactivity

QVQLQESGGGLVQAVCSRRLSCAASGSFSSRDAMGWYRQAPGTEREFVATIAVGGNTNYADSAKGRFTISRDNAKITVYLQMNSPKPEDTAVYYRAAVIDFDIFTYWGQGTQVTVRS
polyreactivity (PSR sort gate): high polyreactivity

QVQLVESGGGLVQAGGSLRLSCAASGRIFSPYAMGWYRQAPGKERELVAAITWSGTSTSYADSVKGRFTISRDNAKNTVYLQMNRLKPEDTAVYYCNAVYRSWDRYTFYWYVSNDYWGQGTQVTVSS
polyreactivity (PSR sort gate): low polyreactivity

QVQLVESGGGLVQAGGSLRLSCAASGRIFPVYAMGWYRQAPGKEREFVAAIRGTGTSTYYADSVKGRFTISRDNAKNTVYLQMNSLKPEDTAVYYCAASAGYAYNYWGQGTQVTVSS
polyreactivity (PSR sort gate): low polyreactivity

QVQLVESGGGLVQAGGSLRLSCAASGSIFDWYVMGWYRQPPGKERELVATITRDGSTNYADSVKGRFTISRDNAKNTVYLQMNSLKPEDTAVYYCNAASRAYGYNYWGQGTQVTVSS
polyreactivity (PSR sort gate): low polyreactivity

QFQLVESGGGLVQAGGSLRLSCAASGRIIAFYARGWYRQAPGKERELVAAITSGSSTNYADSVKGRFTISRDNAKNTVYLQMNSLKPEDTAVYYCAAEGLRKGDRTDWKLYEYWGQGTQVTVSS
polyreactivity (PSR sort gate): high polyreactivity

QVQIVESGAGLVQAGGSLRISCAPSGLTFGYYAMGWYRQAPGKERELVAAISSSGVNTYYADSVKGRFTISRDNAKNTVYLQMNSLKPEDTAVYYCNTVPKPWYSWKYAYDYWGHGTQVTVSS
polyreactivity (PSR sort gate): high polyreactivity

QVQLVESGGGLVQAGGSLRLSCAASGFTFSYYAMGWYRQAPGKERELVAAISWSGTATYYADSVKGRFTISRDNAKNTVYLQMNSLKPEDTAVYYCAAGYSASGKVDYRGQGTQVTVSS
polyreactivity (PSR sort gate): high polyreactivity

QVQLVESGGGLVLAGGSLRLSCAASGSIFIHYAMGWYRQARGKERELVAAITGDGNTTYADSVKGRFTISRDNAQNTVNLPINSLKPEDTAVYSCAVTIVDYVWAFDYWGQGTQVNVSS
polyreactivity (PSR sort gate): low polyreactivity

QVQLVESGGGLVQAGGSLRLICAASGRIFRVYAMGWYRQSPGKERELVAAISSRGGRTYYADSVKGRFTISRDNAKNTVYLQMKSMIPEDTAVYYCAADGRSSSRTTYRYDYWGQGTQVTVSS
polyreactivity (PSR sort gate): high polyreactivity

QVQLGESGGALVQAGGSLRLSCAASGFTFCPYAMGWYRQAPGKERELDAAISQSGGRTSYADSVKGRFTISRDNAKNTVYLQMNSLKPEDTAVYYCAKRAYGYRSIYRMDYWGQGTLVTVSS
polyreactivity (PSR sort gate): high polyreactivity

QVQLVESGGGLVQAGGSLRLSCAASGSIFYTNAMGWYRQAPGKEREFVAGITRRGTSTNYADSVKGRFTISRDKAKNTVYLQMNSQKPEDTAVYYCNARYYLYWGQGTQVTVSS
polyreactivity (PSR sort gate): low polyreactivity

QVQLVESGGGLVQAGGSLRLSCAASGITFDYNAMGWYRPAPGKERELVASITTNDDSTYYADSVKGRFTISRDNAKNTVYLQINSLKPEDTAVYSCNADQITGQFDYWGQGTQVTVSS
polyreactivity (PSR sort gate): low polyreactivity

QVQLVESGGGLVQAGGSLRLSCAASGSTFSINAMGWYRQAPGKERELVAAISWRGSGTYYADSVKGRFTISRDNAKNTVYLQMNSLKPEDTAVYYCAAEWDRPLYYPWYVEYDYWGQGTQVTVSS
polyreactivity (PSR sort gate): high polyreactivity

QVQLVESGGGLVQAGGSLRLSCAASGSTFVVNTMGWYRQAPGKERELVAAITRRTTSTYYADSVKGRFTISRDNAKNTVYLQMNSLKPEDTAVYYCAAERRHYSTTYYYWGQGTQVTVSS
polyreactivity (PSR sort gate): high polyreactivity

QVQLVESGGGLVQAGGSLRLSCAASGSTFTINAKGWYRQATGKETELVAAITDSAGNTYYADSVKGRFTISRDNAKNTVYLQMNSLKPEDTAVYYCAAAWPSTGLLYVLGYSGYGYWGQGTQVTVSS
polyreactivity (PSR sort gate): low polyreactivity

QVQLVESGGGLVQAGGSLRLSCAASGRIFFGYAMGWYRQAPGKERELVAAITRRGTITHYADSVKGRFTISRDNAKNTVYLQMNSLKPEDTAVYYCNTVYARYSTAPGYNYWGQGTQVTVSS
polyreactivity (PSR sort gate): high polyreactivity

QVQLVESGGGLVQAGGSLRLSCAASGFIFPPYAMGWYRQAPGKERELVAAIRISGGSTYYADSVKGRFTISRDNAKNTVYLQMNSLKPEDTAVYYCAARYVSSTPAYAYYYWGQGTQVTVSS
polyreactivity (PSR sort gate): high polyreactivity

QVQLVESGGGLVQAGGSLRLSCAASGTFFIYAMGWYRQAPGKERELVATISTGGSTNYADSVKGRFTISRDNAKNTVYLQMNSLKPEDTAVYYFAAEWLYPHDGGYPRPMDYWGQGTQVTVSS
polyreactivity (PSR sort gate): low polyreactivity
